Molecular target: csk21_human CSNK2A1 (UniProt P68400)
Sequence (P68400 whole entry, looked up): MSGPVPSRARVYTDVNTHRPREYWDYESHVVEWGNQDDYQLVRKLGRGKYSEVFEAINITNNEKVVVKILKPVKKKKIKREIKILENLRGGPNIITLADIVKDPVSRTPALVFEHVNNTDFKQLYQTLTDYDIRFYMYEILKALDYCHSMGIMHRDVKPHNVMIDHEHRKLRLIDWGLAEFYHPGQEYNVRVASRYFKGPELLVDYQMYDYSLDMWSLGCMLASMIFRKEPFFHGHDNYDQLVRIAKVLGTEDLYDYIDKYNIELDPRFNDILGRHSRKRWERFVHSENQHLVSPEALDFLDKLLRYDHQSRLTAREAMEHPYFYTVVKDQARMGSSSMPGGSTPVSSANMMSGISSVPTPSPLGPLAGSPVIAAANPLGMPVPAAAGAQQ

Sequence of Casein kinase II subunit beta (Homo sapiens), P67870 L39R (P67870 whole entry L39R): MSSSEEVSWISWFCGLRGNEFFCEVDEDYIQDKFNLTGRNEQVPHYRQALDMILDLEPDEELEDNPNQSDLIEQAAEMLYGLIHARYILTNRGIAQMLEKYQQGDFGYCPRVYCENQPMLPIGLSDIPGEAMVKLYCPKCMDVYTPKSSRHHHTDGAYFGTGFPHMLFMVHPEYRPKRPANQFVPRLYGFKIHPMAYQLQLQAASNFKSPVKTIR

Substance: Casein kinase II subunit beta (Homo sapiens), P67870 L39R
- effect of a mutation on the interaction: decreasing interaction strength
